# Reference: publication PMC3078593, “Multifunctional transcription factor TFII-I is an activator of BRCA1 function” (British Journal of Cancer, 2011)
# B1: GST-tagged TFII-I (wild type) (natural protein, UniProt P78347-2 1-957, looked up)
# chain: MAQVAMSTLPVEDEESSESRMVVTFLMSALESMCKELAKSKAEVACIAVYETDVFVVGTERGRAFVNTRKDFQKDFVKYCVEEEEKAAEMHKMKSTTQANRMSVDAVEIETLRKTVEDYFCFCYGKALGKSTVVPVPYEKMLRDQSAVVVQGLPEGVAFKHPENYDLATLKWILENKAGISFIIKRPFLEPKKHVGGRVMVTDADRSILSPGGSCGPIKVKTEPTEDSGISLEMAAVTVKEESEDPDYYQYNIQGSHHSSEGNEGTEMEVPAEDDDYSPPSKRPKANELPQPPVPEPANAGKRKVREFNFEKWNARITDLRKQVEELFERKYAQAIKAKGPVTIPYPLFQSHVEDLYVEGLPEGIPFRRPSTYGIPRLERILLAKERIRFVIKKHELLNSTREDLQLDKPASGVKEEWYARITKLRKMVDQLFCKKFAEALGSTEAKAVPYQKFEAHPNDLYVEGLPENIPFRSPSWYGIPRLEKIIQVGNRIKFVIKRPELLTHSTTEVTQPRTNTPVKEDWNVRITKLRKQVEEIFNLKFAQALGLTEAVKVPYPVFESNPEFLYVEGLPEGIPFRSPTWFGIPRLERIVRGSNKIKFVVKKPELVISYLPPGMASKINTKALQSPKRPRSPGSNSKVPEIEVTVEGPNNNNPQTSAVRTPTQTNGSNVPFKPRGREFSFEAWNAKITDLKQKVENLFNEKCGEALGLKQAVKVPFALFESFPEDFYVEGLPEGVPFRRPSTFGIPRLEKILRNKAKIKFIIKKPEMFETAIKESTSSKSPPRKINSSPNVNTTASGVEDLNIIQVTIPDDDNERLSKVEKARQLREQVNDLFSRKFGEAIGMGFPVKVPYRKITINPGCVVVDGMPPGVSFKAPSYLEISSMRRILDSAEFIKFTVIRPFPGLVINNQLVDQSESEGPVIQESAEPSQLEVPATEEIKETDGSSQIKQEPDPTW
# Target: GST-BRCT
# Test: cell-based or functional assay
binder,measurement,value
B1,"luciferase activity of 17M8-AdMLP-luc driven by GAL4-BRCT (GAL-BRCT) in COS7 cells, with TFII-I expressed",≤ 2 fold
